This is an account of results in publication doi:10.1101/2024.07.18.604210.

Assay [1] addresses C-terminal domain of SepF from M. tuberculosis (tbSepF-CTD, residues 146-241) (M. tuberculosis). Kind of assay: SAXS.
For assay [2] the target is unchanged. Description: AUC.
Assay [3] shares this target. Kind of assay: ITC.

Chain of C-terminal domain of SepF from M. tuberculosis (tbSepF-CTD, residues 146-241) (M. tuberculosis) (A1KKJ0 123-218 limits assumed): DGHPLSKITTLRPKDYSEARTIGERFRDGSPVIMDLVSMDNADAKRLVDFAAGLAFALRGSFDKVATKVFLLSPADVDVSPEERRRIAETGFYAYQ

With “C-terminal domain of SepF from M. tuberculosis (tbSepF-CTD, residues 146-241) (domain or fragment)”, the stoichiometry N in assay [1] and in assay [2] was 2 throughout.

Take “chemically synthesized 18-residue peptide from the C-terminal region of tbFtsZ”: in assay [3], the Kd (as a rule, the equilibrium constant for the complex coming apart) is 19.7 µM and the stoichiometry N (usually the number of molecules, sites or subunits per partner or assembly) was determined as 1.
